Bridge positions count the residues as written; N and C are the ends. Square brackets hold non-standard residues; d marks the D form. Tyr(3-NO2) = N[C@@H](Cc1ccc(O)c([N+](=O)[O-])c1)C(=O)O; Arg(NO2) = N=C(NCCC[C@H](N)C(=O)O)N[N+](=O)[O-]

Test [1] concerns the target T1, human soluble FcRn (human, UniProt P55899 24-297; P61769 21-119, limits assumed, chemically biotinated with NHS-biotin in the mRNA display assays; amine-coupled to the sensor chip in the Biacore assay).
T1 construct: also called neonatal Fc receptor
In words: SPR, Biacore T100, KD at pH 7.4 against KD at pH 6.0. The protocol: (§1) In order to find whether a peptide alone interacts with FcRn in a pH dependent manner, the peptide 2G01D not having SGSGS on the C-terminal side of 8D-01 and amidated at the C-terminal was synthesized on a solid phase and a dissociation constant Kd binding constant was measured using Biacore T100 (GE Healthcare). FcRn was immobilized onto a sensor chip by an amine coupling method. The following is the peptide 2G01D:
(§2) On the other hand, a solid-phase synthesized peptide 2G01D was added as an analyte to a phosphate buffer having a pH 6.0 or 7.4 and a dissociation constant was measured.

In test [2] the target is T1, human soluble FcRn. In words: SPR, Biacore T100, FcRn amine-coupled to chip, peptide as analyte, phosphate buffer pH 7.4. The procedure: as §1, §2
(In general: In SPR one partner is held on a chip, and binding of the other changes the refractive index at the surface.)

In test [3] the target is T1, human soluble FcRn. In words: SPR, Biacore T100, FcRn amine-coupled to chip, peptide as analyte, phosphate buffer pH 6.0. The protocol:
as §1, §2

T1 sequence (P55899 24-297 limits assumed, chain 1 of 2): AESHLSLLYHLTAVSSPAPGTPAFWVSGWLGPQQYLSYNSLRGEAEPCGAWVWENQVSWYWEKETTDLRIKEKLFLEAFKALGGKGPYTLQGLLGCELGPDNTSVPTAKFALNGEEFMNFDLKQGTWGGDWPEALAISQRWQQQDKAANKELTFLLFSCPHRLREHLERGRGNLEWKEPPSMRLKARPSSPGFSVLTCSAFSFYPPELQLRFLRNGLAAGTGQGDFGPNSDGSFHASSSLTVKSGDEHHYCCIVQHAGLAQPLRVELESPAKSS
T1 sequence (P61769 21-119 limits assumed, chain 2 of 2): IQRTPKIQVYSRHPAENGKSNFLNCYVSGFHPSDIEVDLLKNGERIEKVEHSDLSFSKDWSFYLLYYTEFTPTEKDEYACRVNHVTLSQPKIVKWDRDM

B1: peptide 2G01D (peptide)
peptide: {CH2CO}-[dNty]F[Tyr(3-NO2)]LYN[Arg(NO2)]GDPL[Tyr(3-NO2)]LCG-NH2
modifications: thioether N-14; not fully specified
notes: also called solid-phase synthesized peptide 2G01D
B1: the “fold change in dissociation constant between pH 7.4 and pH 6.0” value with human soluble FcRn [1] is about 70 times. Moreover, in the test with human soluble FcRn [2], the Kd (in general, a measure of binding affinity in units of concentration) was found to be 293 nM; the koff (usually a measure of how fast the partners let go of each other) came out at 0.00955 s⁻¹; the kon (commonly the rate constant with which the complex forms) was 32600 M⁻¹ s⁻¹. In the test with human soluble FcRn [3], this molecule had a Kd of 4.26 nM, a koff of 0.00394 s⁻¹ and an association rate constant (kon) of 925000 M⁻¹ s⁻¹.

The values are drawn from patent US20150133630A1 (UNIVERSITY OF TOKYO, published 2015).
